Assay results reported in patent publication US20100233154A1 (AstraZeneca / MedImmune, published 2010).
Numbering of substitutions follows the chain as printed.

Experiments:
[1] = target: T1, recombinant human heparanase (active, 8 and 50 kDa sub-units, from baculovirus-infected Hi5 cells) (human, UniProt Q9Y251 36-109; Q9Y251 158-543); assay: ELISA, hybridoma supernatant on directly coated recombinant human heparanase
T1 construct: domain: 8 kDa sub-unit;domain: 50 kDa sub-unit; also called soluble recombinant human heparanase; recombinant Hpa1
T1 sequence (looked up) 1: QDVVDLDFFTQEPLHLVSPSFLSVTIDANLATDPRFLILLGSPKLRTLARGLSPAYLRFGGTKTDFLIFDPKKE
T1 sequence (looked up) 2: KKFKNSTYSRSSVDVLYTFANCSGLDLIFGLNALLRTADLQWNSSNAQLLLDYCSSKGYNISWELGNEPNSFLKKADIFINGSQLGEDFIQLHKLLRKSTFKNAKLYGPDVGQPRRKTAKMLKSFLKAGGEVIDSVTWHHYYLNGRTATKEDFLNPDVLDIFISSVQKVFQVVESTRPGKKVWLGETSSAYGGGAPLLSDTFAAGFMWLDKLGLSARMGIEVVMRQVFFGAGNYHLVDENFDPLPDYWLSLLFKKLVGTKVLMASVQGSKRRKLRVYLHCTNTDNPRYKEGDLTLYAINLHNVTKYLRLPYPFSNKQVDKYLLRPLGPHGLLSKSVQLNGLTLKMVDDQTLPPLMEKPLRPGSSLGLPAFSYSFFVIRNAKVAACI

murine heparanase = target: T2, murine heparanase (murine, UniProt Q6YGZ1 28-535, limits assumed); assay: cross species capture ELISA, heparanase captured by rabbit anti-heparanase antibody, exhaustive supernatant 1:5, anti-human IgG Fc detection
T2 construct: also called Mouse; recombinant murine heparanase
T2 sequence (looked up): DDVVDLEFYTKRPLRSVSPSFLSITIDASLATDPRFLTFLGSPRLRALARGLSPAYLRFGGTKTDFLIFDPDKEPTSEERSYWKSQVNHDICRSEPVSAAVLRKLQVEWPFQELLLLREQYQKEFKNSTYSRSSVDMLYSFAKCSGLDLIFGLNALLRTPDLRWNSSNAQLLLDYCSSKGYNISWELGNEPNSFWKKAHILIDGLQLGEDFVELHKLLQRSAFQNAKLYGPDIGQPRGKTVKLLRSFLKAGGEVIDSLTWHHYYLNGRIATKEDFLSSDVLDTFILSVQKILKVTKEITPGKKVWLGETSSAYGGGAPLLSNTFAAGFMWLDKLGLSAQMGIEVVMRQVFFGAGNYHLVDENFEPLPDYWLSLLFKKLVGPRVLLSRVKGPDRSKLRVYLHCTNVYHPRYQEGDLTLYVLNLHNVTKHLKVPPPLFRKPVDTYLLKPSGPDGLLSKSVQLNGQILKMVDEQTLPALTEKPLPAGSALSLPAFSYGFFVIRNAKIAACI
Experimental: (§1) Initially, cross species binding to human, murine and cynomolgus heparanase was determined in an ELISA assay in which heparanase was captured onto plates using a rabbit anti-heparanase antibody (Raybiotech, Cat. IP-14-155). Exhaustive supernatants were added to the plates at a final dilution of 1:5 and bound antibody detected with a rabbit anti-human IgG Fc.

cynomolgus heparanase = target: T3, cynomolgus heparanase (cynomolgus, UniProt A0A2K5UQU0 87-593); assay: as above
T3 construct: also called recombinant cynomolgus heparanase
T3 sequence: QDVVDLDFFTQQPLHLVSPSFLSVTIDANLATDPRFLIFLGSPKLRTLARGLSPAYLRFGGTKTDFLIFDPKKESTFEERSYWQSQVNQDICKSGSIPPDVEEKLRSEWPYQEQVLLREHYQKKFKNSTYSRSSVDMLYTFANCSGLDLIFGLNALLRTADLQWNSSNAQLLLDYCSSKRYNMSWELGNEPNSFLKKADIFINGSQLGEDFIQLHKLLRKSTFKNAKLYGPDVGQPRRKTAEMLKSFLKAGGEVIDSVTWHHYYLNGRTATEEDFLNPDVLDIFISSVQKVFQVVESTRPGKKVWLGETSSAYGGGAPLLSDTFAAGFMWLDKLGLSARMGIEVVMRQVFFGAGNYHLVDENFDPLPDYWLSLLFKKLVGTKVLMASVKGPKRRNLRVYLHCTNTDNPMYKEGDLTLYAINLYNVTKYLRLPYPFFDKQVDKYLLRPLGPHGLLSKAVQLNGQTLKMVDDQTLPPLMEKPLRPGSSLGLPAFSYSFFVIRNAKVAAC
Experimental: as §1

[2] = target: T4, human heparanase as used in the cross species capture ELISA (human, UniProt Q9Y251 36-543, limits assumed); assay: as above
T4 construct: Captured on plates by a rabbit anti-heparanase antibody
T4 sequence (looked up): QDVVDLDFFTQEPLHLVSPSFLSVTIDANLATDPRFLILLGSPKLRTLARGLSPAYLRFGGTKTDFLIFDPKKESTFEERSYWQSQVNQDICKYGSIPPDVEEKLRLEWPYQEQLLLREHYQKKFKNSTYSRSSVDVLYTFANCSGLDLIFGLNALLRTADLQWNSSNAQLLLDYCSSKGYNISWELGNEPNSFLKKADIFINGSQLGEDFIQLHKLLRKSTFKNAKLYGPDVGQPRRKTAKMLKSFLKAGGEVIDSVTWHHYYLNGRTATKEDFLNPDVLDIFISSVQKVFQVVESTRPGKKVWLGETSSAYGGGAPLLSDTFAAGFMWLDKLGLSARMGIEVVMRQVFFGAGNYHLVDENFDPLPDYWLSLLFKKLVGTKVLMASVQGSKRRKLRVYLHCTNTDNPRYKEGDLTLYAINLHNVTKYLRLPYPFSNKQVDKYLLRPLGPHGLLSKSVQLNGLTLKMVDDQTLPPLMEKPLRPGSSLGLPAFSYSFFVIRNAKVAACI
Experimental: as §1

[3] = target: T1, recombinant human heparanase (active, 8 …); assay: cell-based or functional assay
[4] = target: T1, recombinant human heparanase (active, 8 …); assay: medium resolution Biacore, antibody captured on goat anti-human antibody CM4 chip, recombinant Hpa1 at 1 nM and 10 nM, 25 C, 1:1 model with mass transport
Experimental: For medium resolution Biacore™ tests, cloned and purified antibodies were used. Each of three purified antibodies (10E9.1, 15A1.2, and 15A11.1) were captured onto a high-density goat anti-human antibody surface over a CM4 Biacore™ chip. Recombinant Hpa1 was diluted to the desired concentration (1 nM and 10 nM) in 10 mM HEPES, 150 mM NaCl, 0.005% tween-20, 0.1 mg per ml BSA pH7.4 (25° C.) immediately prior to injection. Data were fit globally to a 1:1 interaction model with a term for mass transport included. The resulting KD values are summarised below in Table 4.

B1: monoclonal antibody 16E1.1 (antibody, V domains shown)
VH: QVQLQESGPGLVKPSQTLSLTCTVSGGSISSGGYYWSWIRQHPGKGLEWIGFIYYSGSTFYNPSLKSRITISVDTSKNQFSLKLSSVTAADTAVYYCARPYSSSWYGAFDIWGQGTMVTVSS
VL: SYELTQPPSVSVSPGRTASITCSEDKLGNKYAYWYQQKPGQSPVLVIYQDSERPSGIPERFSGSNSGNTATLTISGTQAMDEADYYCQAWDSSTVVFGGGTKLTVL
notes: Fully human (XenoMouse) antibody
[1]
  OD, binding to direct coated heparanase: 0.15 OD units
Murine heparanase
  OD, binding to heparanase (Mouse): 0.63 OD units
Cynomolgus heparanase
  OD, binding to heparanase (Cyno): 1.66 OD units
[2]
  OD, binding to heparanase (Human): 1.08 OD units
[3]
  Inhibition of recombinant human heparanase %, Assay 1: 40%
  Inhibition of recombinant human heparanase %, Assay 2: 51%

B2: monoclonal antibody 7B9.1 (antibody, V domains shown)
VH: QVQLVESGGGVVQPGRSLRLSCAASGFTFSSYGMHWVRQAPGKGLEWVAVIWYDGSNKYYADSVKGRFTISRDNSKNTLYLQMNSLRAEDTAVYYCAREGAPYSSSDAFDIWGQGTMVTVSS
VL: QSVLTQPPSVSGAPGQRVTISCTGSSSNIGANYDVHWYQQLPGTAPKLLIYGDNNRPSGVPDRFSGSKSGTSASLAITGLQAEDEADYYCQSYDSSLSGSVFGGGTKLTVL
notes: as for B1
[1]
  OD, binding to direct coated heparanase: 3.78 OD units
Murine heparanase
  OD, binding to heparanase (Mouse): 0.58 OD units
Cynomolgus heparanase
  OD, binding to heparanase (Cyno): 1.06 OD units
[2]
  OD, binding to heparanase (Human): 0.68 OD units
[3]
  Inhibition of recombinant human heparanase %, Assay 1: 63%
  Inhibition of recombinant human heparanase %, Assay 2: 54%

B3: monoclonal antibody 15A1.2 (antibody, V domains shown)
VH: QVQLVQSGAEVKKPGASVKVSCKVSGYTLTELSMHWVRQAPGKGLEWMGGFDPEDGETIFAQKFQGRVTMTEDTSTDTAYMELSSLRSEDTAVYYCATGLRFLEWFLWGWDVWGQGTTVTVSS
VL: DIQMTQSPSSVSASVGDRVTITCRASQGISNWLAWYQQTPGKAPQLLIYGASSLQSGVPSRFSGSGSGTDFTLTISSLQPEDFATYYCQQADSFPPTFGQGTKVEIK
notes: Fully human (XenoMouse) antibody; also called ATCC PTA-9491
[1]
  OD, binding to direct coated heparanase: 0.08 OD units
Murine heparanase
  OD, binding to heparanase (Mouse): 0.14 OD units
[2]
  OD, binding to heparanase (Human): 0.19 OD units
[4]
  Kd: 0.056 nM
  koff: 0.000105 s⁻¹
  kon: 1.88e+06 M⁻¹ s⁻¹
[3]
  Inhibition of recombinant human heparanase %, Assay 1: 81%
  Inhibition of recombinant human heparanase %, Assay 2: 91%

B4: monoclonal antibody 16G1.1 (antibody, V domains shown)
VH: QVQLVESGGGVVQPGRSLRLSCAASGFTFSSYGMHWVRQAPGKGLEWVAVIWYDGSNKYYADSVKGRFTISRDNSKNTLNLQMNSLRAEDTAVYYCGRDPGTYHYYYHGMDVWGQGTTVTVSS
VL: YIVMTQSPLSLPVTPGEPASISCRSSQSLLHSNGYNFLDWYLQKPGQSPQLLIYLGSNRASGVPDRFSGSGSGTDFTLKINRVEAEDVGVYYCMQALQTPITFGQGTRLEIK
notes: as for B1
[1]
  OD, binding to direct coated heparanase: 3.63 OD units
Murine heparanase
  OD, binding to heparanase (Mouse): 0.61 OD units
Cynomolgus heparanase
  OD, binding to heparanase (Cyno): 1.64 OD units
[2]
  OD, binding to heparanase (Human): 1.84 OD units
[3]
  Inhibition of recombinant human heparanase %, Assay 1: 44%
  Inhibition of recombinant human heparanase %, Assay 2: 53%

B5: monoclonal antibody 15A11.1 (antibody, V domains shown)
VH: QVQLVQSGAEVKKPGASVKVSCKVSGDTLTELSMHWVRQTPGKGLEWMGGFDPEDGETIYAQKFQGRVTMTGDTSTDTAYMELSSLRSEDTAVYYCATEGDYGDSEEYYYYYGMDVWGQGTTVTVSS
VL: DIQMTQSPSSLSASVGDRVTITCRASQGISNYLAWYQQKPGKVPKLLIYAASTLQSGVPSRFSGSGSGTDFTLTISSLQPEDVATYYCQKYNRAPFTFGPGTKVDIK
notes: Fully human (XenoMouse) antibody; also called ATCC PTA-9490
[1]
  OD, binding to direct coated heparanase: 0.07 OD units
Murine heparanase
  OD, binding to heparanase (Mouse): 0.17 OD units
Cynomolgus heparanase
  OD, binding to heparanase (Cyno): 0.14 OD units
[2]
  OD, binding to heparanase (Human): 0.21 OD units
[4]
  Kd: 0.056 nM
  koff: 0.000309 s⁻¹
  kon: 3.6e+06 M⁻¹ s⁻¹
[3]
  Inhibition of recombinant human heparanase %, Assay 1: 75%
  Inhibition of recombinant human heparanase %, Assay 2: 87%

B6: monoclonal antibody 10E9.1 (antibody, V domains shown)
VH: QVQLVQSGAEVKKPGASVKVSCKVSGYSLTELSIHWVRQAPGKGLEWMGGFDPEDGEIIFAQKFQGRVTLTEDISLDTAYMEVSSLRSEDTAVYYCATEGHDSGDYVGYYYYGLDVWGQGTTVTVSS
VL: B5 VL with G28D, S30R, Y32F, V43L, T85S, K90S, Y91H, R93S, A94V, K107R
notes: Fully human (XenoMouse) antibody; also called mAb 10E9.1; ATCC PTA-9489
[1]
  OD, binding to direct coated heparanase: 0.2 OD units
Murine heparanase
  OD, binding to heparanase (Mouse): 0.49 OD units
Cynomolgus heparanase
  OD, binding to heparanase (Cyno): 1.4 OD units
[2]
  OD, binding to heparanase (Human): 0.63 OD units
[4]
  Kd: 0.0545 nM
  koff: 0.000112 s⁻¹
  kon: 2.06e+06 M⁻¹ s⁻¹
[3]
  Inhibition of recombinant human heparanase %, Assay 1: 88%
  Inhibition of recombinant human heparanase %, Assay 2: 99%

B7: monoclonal antibody 14H12.3 (antibody, V domains shown)
VH: QVQLVESGGGVVQPGRSLRLSCAASGFTFSSYGMHWVRQAPGKGLEWVAVIWYDGSNKDYADSVKGRFTISRDNSKNTLYLQMNSLRAEDTAVYYCAREGSTSWTDYYGMDVWGQGTTVTVSS
VL: SYELTQPPSVSVSPGQTARITCSGDALPKRYAYWYQQKSGQALVLVIYEDSKRPSGIPERFSGSSSGTMATLTISGAQVEDEADYYCYSIDSSGNHGVFGGGTKLTVL
notes: as for B1
[1]
  OD, binding to direct coated heparanase: 3.69 OD units
Murine heparanase
  OD, binding to heparanase (Mouse): 0.14 OD units
Cynomolgus heparanase
  OD, binding to heparanase (Cyno): 0.95 OD units
[2]
  OD, binding to heparanase (Human): 0.61 OD units
[3]
  Inhibition of recombinant human heparanase %, Assay 1: 58%
  Inhibition of recombinant human heparanase %, Assay 2: 85%
